# Assay results as given in patent publication US20200308242A1.
# Legend:
# [1] = target: T1, IFNα receptor on GloResponse ISRE-luc2P/HEK293 cells (UniProt P17181); assay: cell-based or functional assay
# T1 sequence (looked up) 1: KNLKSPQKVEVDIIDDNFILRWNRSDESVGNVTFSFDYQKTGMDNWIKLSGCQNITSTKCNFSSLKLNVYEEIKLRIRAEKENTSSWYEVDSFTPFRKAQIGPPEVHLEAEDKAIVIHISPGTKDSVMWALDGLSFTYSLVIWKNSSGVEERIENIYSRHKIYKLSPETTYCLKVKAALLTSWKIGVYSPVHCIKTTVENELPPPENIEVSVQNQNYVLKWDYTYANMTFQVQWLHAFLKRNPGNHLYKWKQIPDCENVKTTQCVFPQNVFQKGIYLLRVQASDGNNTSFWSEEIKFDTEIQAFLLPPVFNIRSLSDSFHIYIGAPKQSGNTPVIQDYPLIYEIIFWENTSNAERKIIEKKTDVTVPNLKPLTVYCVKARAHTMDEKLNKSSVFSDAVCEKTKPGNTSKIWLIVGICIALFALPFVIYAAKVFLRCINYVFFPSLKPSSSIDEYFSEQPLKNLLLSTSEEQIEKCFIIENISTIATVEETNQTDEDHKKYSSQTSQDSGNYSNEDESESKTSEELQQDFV
# T1 sequence (looked up) 2: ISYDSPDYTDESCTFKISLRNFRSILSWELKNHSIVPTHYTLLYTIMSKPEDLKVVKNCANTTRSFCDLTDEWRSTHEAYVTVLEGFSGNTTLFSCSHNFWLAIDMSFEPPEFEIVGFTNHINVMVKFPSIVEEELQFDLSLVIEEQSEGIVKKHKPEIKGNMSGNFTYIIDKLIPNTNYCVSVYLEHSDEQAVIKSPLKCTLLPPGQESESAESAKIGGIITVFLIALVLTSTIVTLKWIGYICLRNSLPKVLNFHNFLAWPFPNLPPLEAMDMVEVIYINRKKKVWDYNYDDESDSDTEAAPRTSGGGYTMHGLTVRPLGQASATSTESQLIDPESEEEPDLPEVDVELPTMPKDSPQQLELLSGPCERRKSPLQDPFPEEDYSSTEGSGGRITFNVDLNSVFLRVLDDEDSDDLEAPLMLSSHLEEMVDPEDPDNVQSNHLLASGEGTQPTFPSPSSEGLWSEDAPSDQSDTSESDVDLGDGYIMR
# [2] = target: IL-2Rβ/IL-2Rγ receptor subunits on PathHunter U2OS IL-2Rβ/IL-2Rγ/(IL-2Rα) cells (UniProt P14784); assay: cell-based or functional assay
"EC50 of IL-15-induced IL-2Rβ/IL-2Rγ dimerisation (PathHunter U2OS chemiluminescence), +MMP-9 [2]","EC50, ISRE-luc2P/HEK293 luciferase reporter, +MMP9 [1]",Substance,also measured
–,–,H16/L16-PVGLIG-hIFNα2a cleaved by MMP-9 (released hIFNα2a) (from UniProt P01563 24-188) (ligand),"EC50, ISRE-luc2P/HEK293 luciferase reporter, +MMP9, no pre incubation of the cells with H16/L16 antibody [1]: 0.02 nM; EC50, ISRE-luc2P/HEK293 luciferase reporter, +MMP9, pre incubation of the cells with H16/L16 antibody (to saturate IGF1-R binding sites) [1]: 0.02 nM"
2.84 nM,–,H16/L16-PVGLIG-hIL-15 cleaved by MMP-9 (released hIL-15) (from UniProt P40933 49-162) (ligand),–
–,–,NHS76-PVGLIG-hIFNα2a (from UniProt P01563 23-188),"EC50, ISRE-luc2P/HEK293 luciferase reporter, -MMP9 [1]: 5.33 nM"
–,0.03 nM,NHS76-PVGLIG-hIFNα2a cleaved by MMP-9 (released hIFNα2a) (from UniProt P01563 24-188) (ligand),–
8.84 nM,–,NHS76-PVGLIG-hIL-15 cleaved by MMP-9 (released hIL-15) (from UniProt P40933 49-162) (ligand),–
–,0.05 nM,Recombinant human IFNα2a (from UniProt P01563 24-188) (ligand),"EC50, ISRE-luc2P/HEK293 luciferase reporter, -MMP9 [1]: 0.08 nM"
0.71 nM,–,Recombinant human IL-15 (from UniProt P40933 49-162) (ligand),"EC50 of IL-15-induced IL-2Rβ/IL-2Rγ dimerisation (PathHunter U2OS chemiluminescence), -MMP-9 [2]: 0.72 nM"
–,0.02 nM,c9G4-PVGLIG-hIFNα2a cleaved by MMP-9 (released hIFNα2a) (from UniProt P01563 24-188) (ligand),–
2.07 nM,–,c9G4-PVGLIG-hIL-15 cleaved by MMP-9 (released hIL-15) (from UniProt P40933 49-162) (ligand),–
